# T1: human fibronectin-derived control peptide (extra type III structural domain) (human)
# T1 construct: Synthesized by Pepscan Presto; coated on ELISA plates
# T1 peptide: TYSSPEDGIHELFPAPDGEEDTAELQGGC
# T2: human CD134 (full-length, on cells) (human, UniProt P43489 29-277)
# T2 construct: also called OX40; TNFRSF4
# T2 sequence: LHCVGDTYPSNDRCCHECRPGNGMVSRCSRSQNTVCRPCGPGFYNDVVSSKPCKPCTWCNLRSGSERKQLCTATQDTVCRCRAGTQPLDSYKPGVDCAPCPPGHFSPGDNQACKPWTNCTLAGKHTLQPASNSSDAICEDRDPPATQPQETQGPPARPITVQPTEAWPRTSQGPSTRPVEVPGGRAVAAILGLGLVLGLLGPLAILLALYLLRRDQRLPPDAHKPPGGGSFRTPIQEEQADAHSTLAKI
# T3: truncated human CD134 'truncated (tc) CRD4' construct (human, UniProt P43489 147-277)
# T3 construct: also called truncated CRD4
# T3 sequence: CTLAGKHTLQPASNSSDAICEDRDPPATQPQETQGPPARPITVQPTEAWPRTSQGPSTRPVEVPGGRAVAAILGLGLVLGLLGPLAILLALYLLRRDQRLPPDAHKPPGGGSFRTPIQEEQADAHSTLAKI
# T4: human CD134-derived peptide (truncated CRD3 A1-module-CRD4 subdomain A1-module) (human)
# T4 construct: Synthesized by Pepscan Presto; coated on ELISA plates
# T4 peptide: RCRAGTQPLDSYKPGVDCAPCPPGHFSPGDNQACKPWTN
# B1: mouse anti-human CD134 monoclonal antibody clone 12H3 (antibody, V domains shown)
# VH: EVQLQQSGPELVKPGASVKISCKTSGYTFKDYTMHWVKQSHGKSLEWIGGIYPNNGGSTYNQNFKDKATLTVDKSSSTAYMEFRSLTSEDSAVYYCARMGYHGPHLDFDVWGAGTTVTVSP
# VL: DIVMTQSHKFMSTSLGDRVSITCKASQDVGAAVAWYQQKPGQSPKLLIYWASTRHTGVPDRFTGGGSGTDFTLTISNVQSEDLTDYFCQQYINYPLTFGGGTKLEIKR
# notes: also called m12H3; parental mouse anti-human CD134 antibody clone 12H3
# Key:
# [1] = molecular target: T1, human fibronectin-derived control …; test: peptide ELISA
# Experimental: (§1) After adding 1 M […], optical densities was measured at a wavelength of 450 nm (reference wavelength of 655 nm) using a microplate reader (BioRad).
# (§2) Ninety six-wells flat-bottom ELISA plates (Corning) were coated with 10 ng/well human CD134-derived peptide (synthesized by Pepscan Presto, Lelystad, The Netherlands), which corresponded to amino acid sequence of truncated CRD3 A1-module-CRD4 subdomain A1 module (see SEQ ID NO. 38) or with 10 ng/well human fibronectin-derived control peptide (synthesized by Pepscan Presto, Lelystad, The Netherlands), which corresponded to amino acid sequence of extra type III structural domain (see SEQ ID NO. 37) in PBS o/n at 4° C. After extensive washing in PBS/0.05% Tween 20, plates were blocked in PBS/0.05% Tween 20/1% BSA fraction V (Roche) for 1 hour at RT. […] After extensive washing in PBS/0.05% Tween 20, binding of antibodies was determined with 1:5000 diluted horseradish peroxidase-conjugated goat anti-human IgG Fcγ-specific antibodies (Jackson ImmunoResearch) for 1 hour at RT, followed by a ready-to-use solution of TMB substrate (Invitrogen) for colorimetric detection. After adding 1 M H₂SO₄, optical densities was measured at a wavelength of 450 nm (reference wavelength of 655 nm) using a microplate reader (BioRad).
# [2] = molecular target: T5, recombinant human CD134:human Fcγ (IgG1) fusion protein (human, UniProt P01857-1 100-330 = IgG part, limits assumed); test: ELISA, plate-bound CD134:Fc, biotinylated antibody detected with streptavidin-HRP
# T5 construct: domain: Fcγ (IgG1); Bought (R&D Systems); also called rhuCD134
# [3] = molecular target: T2, human CD134 (full-length, on cells); test: flow cytometry, stable CD134 293-F clone no. 23
# Experimental: Full-length human CD134 (SEQ ID NO. 1) was re-cloned in a pcDNA3.1-derived expression plasmid (see Example 11 (d) below). […] After extensive washing in PBS/BSA/NaN₃, cells were subsequently incubated with 1:200 diluted PE-conjugated goat anti-mouse IgG (Fcγ specific) antibodies (Jackson ImmunoResearch) or with 1:200 diluted PE-conjugated goat anti-human IgG (Fcγ specific) antibodies (Jackson ImmunoResearch) for 30 minutes at 4° C. After extensive washing in PBS/BSA/NaN₃, cells were fixed in 2% formaldehyde in PBS/BSA/NaN₃ for 30 minutes at 4° C. Binding of antibodies was measured using flow cytometry (FACSCalibur; BD Biosciences).
# [4] = molecular target: T2, human CD134 (full-length, on cells); test: flow cytometry, PHA-stimulated human CD3+ T lymphocytes
# [5] = molecular target: T3, truncated human CD134 'truncated (tc) …; test: flow cytometry, transiently transfected 293-F cells
# Experimental: After 48 h, surface human CD134 expression on transfected cells was analyzed by FACS analysis. To this end, transfected cells were harvested and put at 1-2×10⁶ cells/mL in ice-chilled PBS/BSA/NaN₃ supplemented with 50 μg/mL purified human IgG (Sigma; blocking Fey receptors). […] After extensive washing in PBS/BSA/NaN₃, cells were subsequently incubated with 1:200 diluted PE-conjugated goat anti-mouse IgG (Fcγ specific) antibodies (Jackson ImmunoResearch) or with 1:200 diluted PE-conjugated goat anti-human IgG (Fcγ specific) antibodies (Jackson ImmunoResearch) for 30 minutes at 4° C. […] After extensive washing in PBS/BSA/NaN₃, cells were subsequently incubated with 1:200 diluted PE-conjugated goat anti-mouse IgG (Fcγ specific) antibodies (Jackson ImmunoResearch) for 30 minutes at 4° C. After extensive washing in PBS/BSA/NaN₃, cells were fixed in 2% formaldehyde in PBS/BSA/NaN₃ for 30 minutes at 4° C. Binding of antibodies was measured using flow cytometry (FACSCalibur; BD Biosciences).
# [6] = molecular target: T5, recombinant human CD134:human Fcγ …; test: competition ELISA, plate-bound CD134:Fc; competitor biotinylated mouse 12H3 at 20 ng/mL
# Experimental: Ninety six-wells flat-bottom ELISA plates (Corning) were coated with 50 ng/well recombinant human CD134:human Fcγ (IgG1) fusion protein (R&D Systems) in PBS o/n at 4° C. After extensive washing in PBS/0.05% Tween 20, plates were blocked in PBS/0.05% Tween 20/1% BSA fraction V (Roche) for 1 hour at RT. […] After adding 1 M H₂SO₄, optical densities were measured at a wavelength of 450 nm (reference wavelength of 655 nm) using a microplate reader (BioRad).
# [7] = molecular target: T4, human CD134-derived peptide (truncated …); test: peptide ELISA, 10 ng/well peptide coated
# Experimental: as §1, §2
# [8] = molecular target: T2, human CD134 (full-length, on cells); test: flow cytometry, stable CD134 293-F clone no. 5, biotinylated antibody detected with streptavidin-PE
# [9] = molecular target: T2, human CD134 (full-length, on cells); test: competition flow cytometry, stable CD134 293-F clone no. 5; competitor biotinylated mouse 12H3 at 700 ng/mL
# Experimental: Full-length human CD134 (SEQ ID NO1) was re-cloned in a pcDNA3.1-derived expression plasmid (see Example 11 (c) above). […] After extensive washing in PBS/BSA/NaN₃, cells were fixed in 2% formaldehyde in PBS/BSA/NaN₃ for 30 minutes at 4° C.
binder,measurement,setting,value
B1,binding result,[1],no binding (tested: 50.0 µg/mL)
same,EC50,[2],~0.02 mg/L
same,EC50,[3],> 0.2 mg/L
same,EC50,[4],~0.5 mg/L
same,binding result,[5],no binding (tested: 20.0 µg/mL)
same,IC50,[6],~0.75 mg/L
same,binding result,[7],binds
same,EC50,[8],~0.7 mg/L
same,IC50,[9],~3.5 mg/L

# From US20140377284A1 (BIOCEROX PRODUCTS B V, published 2014)
